From the nanobody polyreactivity screen of Harvey et al. (2022)

Assay: yeast display, Sf9 membrane polyspecificity reagent, FACS + sequencing; frameworks hold sequencing errors
Procedure, shortened: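 Galactose induction of a Saccharomyces cerevisiae BJ5465 synthetic nanobody display library ran 36–48 hours. The cells were then stained for 1 hour at 4 °C with 10% biotinylated, detergent-solubilized Sf9 membrane reagent, pulled down on streptavidin microbeads and FACS-sorted into low and high (top ~1%) gates on expression and reagent-binding fluorescence. Labels for polyreactivity follow the gate of origin.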

Row | Sequence | polyreactivity (PSR sort gate)
1 | QVQLVESGGGLVQAGGSLRLSCAASGSTFPKNAMGWTIQAPGKERELVADINTGGSTYYADSVKGRFTISRDNAKNTVYLQMNSLIPEDTAVYYCNTQSFYFVSYSSSRYLRYYWGQVTQVTVSS | low polyreactivity
2 | QVQLVESGGGLVQAGGSLRLSCAASGGIFHYYAMGWYRQAPGKERELVAAISWNTGSTYYADSVKGRFTISRDNAKNTVYLQINSLKPEDTAVYYCAASSRRSYLPEGQGEYWGQGTQVTVSS | high polyreactivity
3 | QVQLVESGGGLVQAGGSLRLSCAPSGRTFIFYAMGWSRQAPGKERELVAAISSSGSGTYYADSVKGRFTISRDNAKNTVYLQMNSLIPEDTAVYYCAADVVNSRRRPKYGYWGQGSQVTVSS | low polyreactivity
4 | QVQLLESGGGLVQAGGILRLSCSASGITFSVYDMGCYRQAPGKERELVASISSGGTSTYYADSVKGRFTISRDNAKNTVYFQMNSLKPEDTAVYYGAAYSYFNGDQYSYDYLGQGTQVTVSS | low polyreactivity
5 | QVQLVESGGGLVQAGGSLRLSCAASGFIIQGNAMGRYRQAPGKERELVAAISSSVSTYYADSVKGRFTISRDNAKNTVYLQMNSLKPEDTAVYYCNAGFPLSLWLGDYWGQGTQVTVSS | low polyreactivity
6 | QVQLVESGGGLVQAGGSLRLSCAASGRTFAWYAMGWYIEAPGKERELVAAISSGGSTYYADSVKGRFTISRDNAKNTVYLQMNSLKPEDTAVYYCATRYAIAGWVGYYYWGQCTQVTVSS | low polyreactivity
7 | QVQLVESGGGLVQAGGSLRLSCAASGSIFAANAMGWYRQAPGKERELVAAISRSGNTYYADSVKGRFTISRDNAKNTVYLQMNSLKPEDTAVYYCAARRDAYGRTYGYWGQGTQVTVSS | high polyreactivity
8 | QGQLVESGGGLVQAGGSLRLSCAASGFTFNYYAMGWSRQAPGKERELVAAISWRGGSTSYADSVKGRFTISRDNAKNTVYLQMNSLKPEDTAVYYCNAGYSGIYYFAGDYWGQGTQVTVSS | high polyreactivity
9 | QVQLVESGGGLVQAGGSLRLSCAASGRTFYSYAMGWYRQAPGKERELVAAITSDGGTYYADSVKGRFTISRDNAKNTVYLQMNSLKPEDTAVYYCNAVGGWVTHWLLREGDYWGQGTQVTVSS | low polyreactivity
10 | QVQLVESGGGLVQAGGSLRLSCAASGIIFSNYAMGWYRQAPGKERDLVAAITRSGGRTYYADSVKGRFTISRDNAKNTVYLQMNSLKPEDTAVYYCAATGRSGVLSSYYYWGQGTQVTVSS | high polyreactivity
11 | QVQLVESGGGLVQAGGSLRLSCAASGFTFSQYVMGWSRQAPGKERELVASITGKGGSTRYADSVKGRFTISRDNAKNTVYLQMNSLKQEDTAVYYCAARYVYFRWGSFDYWGQGTQVTVSS | high polyreactivity
12 | QVQLVESGGGLVQAGGSLRLSWAASGSTFVVYAMGWYRQAPGKERELVAAIDLSVGDTYYADSVKGRFTISRDNAKNTVFVQMNILKPEDTAVYYCAAEFYSYKYPDYDYWGQGTQVTVSS | low polyreactivity
13 | QVQLVESGGGLVQAGGSLRLSCAASGSTFVPNAMGGSRPAPGKERELVAAISYSGGTTYYADSVKGRFTISRDNAKNTVYLQMNSLKPEDTAVYYCAARSKGAAAILDDYWGQGTQVTVSS | low polyreactivity
14 | QVQLVESRGVLVQAGGSVRVSCAASGSTFTFNAMGWYRQAPGKVRELVADITSGGRTNYADSVKGRFTISRDNAKNTVYLQMNSLKPEDTAVYYCAARWWAHEYPGYDSWGQGTQVTVSS | low polyreactivity
15 | QVQLVESGGGLVQAGGSLRLSCAASGFIYRLNAMGWYRQAPGKERELVAAISTYADSVKGRFTFSRDNAKTTVYLQMNSLKPEDTAVYYCAKDYTDSYAYRTGFDYWGQGTQVTVSS | low polyreactivity
16 | QVQLVESGGGLVQAGGSLRLSCAASGSLFYFYAMGWYRQAPGKERELVAAISSGGSTYYADSVKGRFTISRDNAKNTVYLQMNSLKPEDTEVYYCAADSLYYRYDYWGQGTQVTVSS | low polyreactivity
17 | QVQLVESGGGLVQAGGSLRLSCAASGRILYYSVMGWYRPAPGKERELVAAISSGGDTNYADSVKGRFTISRDNAKNSVYLQMNSLKPEDTAVYYCARGVDGILWTSEYDYWGQGTQVTVSS | low polyreactivity
18 | QVQLVESGGGLVQAGGSLRLSCAASGSTFEYNAMGWYRQAPGKERELVASSTNYADSVKGRFTISRDNAKNTVYLQMNSLKPEDTAVYYCAREQGVNRNHDYRGQGTQVTVSS | low polyreactivity
19 | QVQLVESGGGLVQAGGSLRLSCAASGSTFRRYAMGWYRQAPGKEREISTSDGSTYYADSVKGRFTISRDNAKNTVYLQMNSLKPEDTAVYYCATEIEYYVGSVPDMGYWGQGTQVTVSS | low polyreactivity
20 | QVQLVESGGGLVQAGGSLRLSCAASGSIFRPYAMGWYRQAPGKERELVAAISVRGGRSYYADSVKGRFTISRDNAKNTVYLQMNSLKPEDTAVYYCNTVRQLGYTGYDYWGQGTQVTVSS | high polyreactivity
21 | QVQLVESGGGLVQAGGSLRLSCAASGRIFVYNAMGWYRQAPGKERELVATITSGGSTYYADSVKGRFTISRDNAKNTVYLQMNSLKPEDTAVYYCAARRWYVHYFAYGYWGQRTQVTVSS | low polyreactivity
22 | QVQHVESGVGLVQAGGSLRLSCAASGSTFSWYTMGWYRQAPGKERELVAAISWSGGRTYYADSVKGRFTISRDNAKNTVYLQMNSLKPEDTAVYYCAAYDYWYSLGDYQFYYWGQGTQVTVSS | low polyreactivity

Row | Sequence | polyreactivity (PSR sort gate)
23 | QVQLVESGGGLVQAGGSLRLICAASGNIFVPNAMGWYREAPGKEWELVAAIRRGGSTNYADSVKGRFTISRDNAKTTVYFQMNSLKPEDTAVYYCAKSRVSFTDLEGYYWGQGTQVTVSS | low polyreactivity
24 | QVQLVESGVGLVQAGGSLRLSCAASGSIFGYNDMGWYRQAPGKERELVAVITSGGSTNYADSVKGRFTISRDNAKNTVYLQMNSLKPEDTAVYYCNAEGVFGDGRSGFYWYDYWGQGTQVTVSS | low polyreactivity
25 | QVQLVESAGGLVQAGGSLSLSCAASASTFSSNAMGGYRQAPGKERELVAAITTSGGSTYYADSVKGRFTISRDNAKNTVYLQMNSLIPEDTAVYYCAADLVHAYQWSIFLYGYWGLGTQVTVSS | low polyreactivity
26 | QVQLVESGGGLVQAGGSLRLSCAASGSIFRIYAMGWYRQAPGKERELVAAITGRGGSTYYADSVKGRFTISRDNAKNTVYLQMNSLKPEDTAVYYCAAEERYAYRYDYWGQGTQVTVSS | high polyreactivity
27 | QVQLVESGGGLVQAGGSLRLSCAASGSILGANAMGWYRQAPGKERELVAAISYRGGSTYYADSVKGRFTISRDNAKNTVYLQMNSLKPEDTAVYYCAAVVPTGYDYWGQGTQVTVSS | low polyreactivity
28 | QVQLVESGAGLVQAGGSLRLSCAASGFTFWRYVMGTYRPAPGKERELVAGITSGGSTYYADSVKGRFTISRDNAKNTVYLQMNSLKPEDTAVYYCAARSGFRSRHKYDYWGQGTQVSVSS | high polyreactivity
29 | QVQLVESGGGLVQAGGSLRLSSAASGRIFRKYAMGWYRQAPGKERELVAAISGSGVSTYYADSVKGRFTISRDNAKNTVYLQMNSLKPEDTAVYYCNARIILRGYKSYRYDYWGQGTQVTVSS | high polyreactivity
30 | QVKLVESGGGLVQAGGSLRLSCAASGSIFPHYAMGWYRQAPGKERELVAAISRGGSTNYADSVKGRFTISRDNAKNTVYLQMNSLKPEDTAVYYCNALRYYSRFLYAVAYRYDYWGQGSQVTVSS | high polyreactivity
31 | QVQLVESGGGLVQAGGSLRLSCADSGLIFRHYAMGWYRQAPGKERELVASISYRGGSTYYADSVKGRFTISRDNPKNTVYLQMNSLKPEDTAVDYCAADTYYPTYWSVTYGYDYWGQGTQVTVSS | low polyreactivity
32 | QVQLVESGGGLVQAGGSLRLSCAASGSIILVYAMGWYRQAPGKERELVAGINSSGTSTYADSVKGRFTISRDNAKNTVYLQMNSLKPEDTAVYYCATPGIYYEMDYWGQGTQVTVSS | low polyreactivity
33 | QVQLVESGGGLVQAGGSLRLSCAASGSIFEINAMGWYRQAPGKERELVAAITQSGGITYYADSVKGRFTISRDNAKNTVYLQINSLKPEDTAVYYCNTPLLKRTTRGRERNYWGQGTQVTVSS | low polyreactivity
34 | QVQLVESGGGLVQAGGSLRLSCAASGSTFASNAMGWYRQAPGKERELVAAISRSGGTTYYADSVKGRFTISRDNAKNTVYLQMNSLKPEDTAVYYCAVYGYRFYKAVKYYYWGQGTQVTVSS | high polyreactivity
35 | QVQLVESGGGLVQAGGSLRLSFAASGSTLGQNAMGWYRQARGKERELVAASSSGGRTYYADSVKGRFTISRDNAKNTVYLQMNSLNPEDTAVYYCNAVAYSLSGYNSWGQGTQVTVSS | high polyreactivity
36 | QVQLVESGGGLVQAGGSLRLSCAASGSNFFFNTMGWYRQAPGKERELVAVITSGGSTYYADSVKGRFTISRDNAKNTVYLQMNSLKPEDTAVYYCAARYLPYRRIKYDYWGQGTQVTVSS | low polyreactivity
37 | QVQLVESGGGLVQAGGSLRLSCAASGSTFYRNAMGWYRQAPGKERELVAAISGSDGSTYYADSVKGRFTISRDNAKNTVYLQMNSLKPEDTAVYYCNARRWWVIRDYWGQGTQVTVSS | high polyreactivity
38 | QVQLVESGGGLVQAGGSLRLSCAASGSTLKLNAMGWYRQAPGKERELVAAITRSGGSTYYADSVKGRFTISRDNAKNTVYLQMNSLKPEDTAVYYCAADVLWDEFGYWGQGTQVTVSS | low polyreactivity
39 | QVQLVESGGGLVQAGGSLRLSCAASGFTFTGYAMGWYRQAPGKERELVAALTRGGGSTYYADSVKGRFTISRDNAKNTVYLQMNSLKPEDTAVYYCAAQRSRLIRISSPYYGHDYWGQGTQVTVSS | low polyreactivity
40 | QVQLVESAGGLVQAGGSLRLSCAASGLTFYVNAMGWYRQAPGKERELVAAITWSGGSTHYADSVKGRFTISRDNAKNTVYLQMNSLKPEDTAVYYCARATYQHSYVAYDYWGQGTQVTVSS | low polyreactivity
41 | QVQLVESGGGLVQAGGSLRLSCAASGSIFYYYAMGLYRQAPGKERELVAAITRRGGNTYYADSVKGRFTISRDNAKNTVYLQMNSLKPEDTAVYYCNAPGFAWYTTKYDYWGQGTQVTVSS | low polyreactivity
42 | PVQLVESGGGFVQAGGSLRLSCAASGFTFYVNAMGWYRQAPGKERELVAAISGSGGSTYYADSVKGRFTISRDNAKNTVYLQMNSLKPEDTAGYYCAADAYNPPYWDDPYDYWGQGTQVTVSS | high polyreactivity
43 | QVQLVESGGGLVQAGGSLRLSCAASGSTFGNYDIGWYRQAPGKERELVAAISFSGGSTYYADSVKGRFTISRDNAKNTVYLQMNSLIPEDTAVYYCAARSNYRMDYWGQGTQVTVSS | high polyreactivity
